Experimental data as given in patent US20220195015A1 (published 2022).
Where a chain is given by its changes, count along the chain named.

Molecular target: SARS-CoV-2 spike receptor binding domain (RBD), wild type (SARS-CoV-2, UniProt P0DTC2 319-539)
Test: ELISA on coated RBD protein

B1: C046 (antibody, V domains shown)
VH: EVQLVESGGGLAQPGRSLRLSCAASGFTFDDYAMHWVRQAPGKGLEWVSGINWNSGSLGYADSVKGRFTISRGIAKNSLYLQMNSLRPEDTAFYYCAKAGVRGIAAAGPDLNFDYWGQGTLVTVSS
VL: EIVLTQSPATLSLSPGERATLSCRASQSVSSYLAWYQQKPGQAPRLLIYDASNRATGIPARFIGSGSGTDFTLTISSLEPEDFAVYYCQQRITFGQGTRLEIK
With B1 the EC50 was 4.02 ng/mL.

B2: C704 (antibody, V domains shown)
VH: VQLVESGGGVVQPGRSLRLSCAASGFTFSRYGMHWVRQAPGKGLEWVAVSSYDGSNEYYANSVKGRFTISRDNSKNTLYLQMNSLRAEDTAVYYCAKTGASYCGGDCPFHFDYWGQGTLVTVSS
VL: IRMTQSPSSLSASVGDRVTITCQASQDINNYLNWYQQKPGKAPKLLIYDASDLETGVPSRFSGGGSGTDFTFTISSLQPEDIATYYCQHYNNLPITFGQGTRLEIK
Binder B2 has an EC50 of 13.4 ng/mL.

B3: C706 (antibody, V domains shown)
VH: EVQLVESGGGLVKPGGSLRLSCAASGFTFSNVWMSWVRQAPGKGLEWVGRIKSKIDGGTTEYAAPVKGRFIISRDDSKNTLSLQMNSLKTEDTAVYYCTTDHGREPPVHWGQGTLVTVSS
VL: EIVLTQSPGTLSLSPGERASLSCRARQSVYSNYLAWYQHKSGQAPRLLFYGASSRATDIPDRFSASGSGTDFTLTISRLEPEDFAVYYCLQYGPSPTFGPGTRLEIK
B3 was tested, and the EC50 was 73.5 ng/mL.

B4: C707 (antibody, V domains shown)
VH: EVQLVESGGGLVKPGGSLRLSCAASGFTFSSYSMNWVRQAPGKGLAWVSSISSSNNIIYYADSVKGRFTISRDDAKDSLYLHMKSLRADDTAVYFCARVPSWAPYQLLPGPFDYWGQGILVTVSS
VL: IRMTQSPSSLSASVGDRVTITCQASQAIASYLSWYQHKPGRAPKLLIYDASNLEIGVPSRFSGSGSGTDFTFTISSLQSEDNATYYCQQYESLPGTFGGGTKVEIK
B4 gave an EC50 of 26 ng/mL.

B5: C095 (antibody, V domains shown)
VH: VQLVEAGGGVVQPGRSLRLSCAASGLAFSIYGMHWVRQAPGKGLEWVAIVAQDGSKKYYADSVKGRFTISRDNSKNTLYLEMNSLRTEDTAVYYCVKEGRPSDTVVVVAFDYWGQGSLVTVSS
VL: DIQLTQSPSSLSASVGDRVTITCRASQSISNYLNWYQQKPGKAPKVIIYAASSLQSGVPSRFSGSGSGTDFTLTISSLQPEDFATYYCQQSHSIPRTFGQGTKVEIK
With B5 the EC50 was 1.1 ng/mL.

B6: C703 (antibody, V domains shown)
VH: EVQLLESGGGLVQPGGSLRLSCAGSGFTFSHYALSWVRQAPGKGLEWVSCISGTGGNSHYADSVKGRFTSSRDNSKNILYLQMNSLRAEDTAVYFCAKGGDFWSGYLIPFDSWGQGTLVTVSS
VL: SYELTQSPSVSVAPGKTARITCGGDSIGSKNVHWYQQKPGQAPVLVMYYDNDRPSGIPERFSGYNSGNTATLSISRVEAGDEADYYCLVWDGSGDPWVFGGGTKLTVL
For B6, the EC50 was 10.9 ng/mL.

B7: C044 (antibody, V domains shown)
VH: EVQLVESGGGLVQPGGSLRLSCAASGFTFSSYSMNWVRQAPGKGLEWVSYISSSSSTIYYADSVKGRFTISRDNAKNSLYLQMNSLRDEDTAVYYCAREAHDGALTDYGDYLNWFDPWGQGTLVTVSS
VL: SYELTQPPSVSVAPGKTARITCGGNNIGSKSVHWYQQKPGQAPVLVIYYDSDRPSGIPERFSGSNSGNTATLTISRVEAGDEADYYCQVWDSSSDHLYWVFGGGTKLTVL
In the case of B7, the EC50 is reported as 1820 ng/mL.

B8: C045 (antibody, V domains shown)
VH: B7 VH with S31T, Y59H
VL: B7 VL with N25T, S31N, S51N, S92T, S93T, L97F
In the case of B8, the EC50 is reported as 7 ng/mL.

B9: C049 (antibody, V domains shown)
VH: QVQLQESGPGLVKPSETLSLTCTVSGGSVSSGTFYWSWIRQPPGKGLEWIGYIHYSGSTNYNPSLKSRVTISVDTSKNQFSLRLSSVTAADTAVYYCARESFYYDRSGYYGSDAFDIWGQGTMVTVSS
VL: DIQMTQSPSTLSSSVGDRVTITCRASQNISRWLAWYQQKPGKAPKLLIYKASTLESGVPSRFSGSGSGTKFTLTISSLQPDDFATYYCQQYNSYLYTFGQGTKLEIK
B9 was tested, and the EC50 was 4.09 ng/mL.

B10: C043 (antibody, V domains shown)
VH: QLVQSGPEVKKPGTSVKVSCKASGFTFYNSAVQWVRQARGQRLEWVGWIVVGSGNTDYAQKFQERVTMTRDLSTNTAYMEVNSLRSEDTAVYYCAAPYCSGGTCLDGFDIWGQGTMVTVSS
VL: EIVLTQSPGTLSLSPGERGTLSCRASQSVRSNYLAWYKQRPGQAPRLLVYGASSRATGIPDRFSGSGSGTDFTLTISRLEPEDFAVYYCQQYGSSPWTFGQGTKVEIK
With B10 the EC50 was 12.1 ng/mL.

B11: C047 (antibody, V domains shown)
VH: QVQLQESGPGLVKPSETLSLTCTVSGGSISSTTYYWDWIRQSPGKGLEWIGSIFYTGITYYSPSLKSRVTISVDTSKNQFSLRLNSMTAADTAVYYCARRLRQLWFGPWFDPWGQGTLVTVSS
VL: QSALTQPPSASGSPGQSVTISCTGTRSDVGDYNYVSWYQQHPDKAPKLIIYEVTKRPSGVPDRFSGSKSGNTASLTVSGLQAEDEADYYCSSYAGSNNVMFGGGTKLTVL
Binder B11 has an EC50 of 11.1 ng/mL.

B12: C710 (antibody, V domains shown)
VH: B11 VH with T23I, S30N, S67T
VL: B11 VL with Y51F, N97S
With B12 the EC50 was 17.8 ng/mL.

B13: C709 (antibody, V domains shown)
VH: QVQLVQSGAEVRKPGASVKVSCMASGYTFNTYDINWVRQGTGQGLEWMGWMNPNSGNTGHAQKFQGRVAMTVNTSMNTAYMELSSLRSEDTAVYYCARGADMLNVAVGADFDYWGQGTLVTVSS
VL: QSALTQPPSASGSPGQSVTISCTGTSSDVGGYNFVSWFQQHPGKAPKLMIYEVSKRPSGVPDRFSGSKSANTASLTVSGLQAEDEADYFCSSYAGSNNWVFGGGTKLTVL
With B13 the EC50 was 7.56 ng/mL.

B14: C048 (antibody, V domains shown)
VH: VQLQESGPGLVKPSETLSLTCAVSGGSVSSGNYYWNWIRQPPGKGLEWIGYIYYSGSTNYNPSLKSRVTISVDTSKNQFSLKLNSVTAADTAVYHCARETYYYDSSGYYISDAFDIWGQGTMVTVSS
VL: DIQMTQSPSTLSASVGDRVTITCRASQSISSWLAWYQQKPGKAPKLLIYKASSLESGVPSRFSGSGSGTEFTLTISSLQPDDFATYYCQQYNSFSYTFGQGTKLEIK
With B14 the EC50 was 4.8 ng/mL.

B15: C096 (antibody, V domains shown)
VH: EVQLVESGGGLVKPGGSLRLSCVASGFTFRNAWMNWVRQAPGKGLEWVGRIKANSDGGTIDYAEPVQGRFTISREDSRNSLYLQMNSLKTEDTAVYYCTTGPQYDDFGHSYIVDSWGPGTLVTVSS
VL: DIVMTQSPLSLPVTLGEPASISCRSSQSLLHSNGFHFLEWYLQKPGQSPQLLIYVGSNRASGVPDRFSGSGSGTDFTLKISRVEAEDVGVYYCMQTLQTPLTFGGGTKVEIK
In the case of B15, the EC50 is reported as 5.18 ng/mL.

B16: C054 (antibody, V domains shown)
VH: EVQLVESGGGLIQPGGSLRLSCAASGFTVSNNYMSWVRQAPGKGLEWVSVIYSGGSTYDADSVKGRFTISRDNSKNTLYLQMNSLSAEDTAVYYCAREGDVEGYYDFWSGYSRDRYYFDYWGQGTLVTVSS
VL: QSALTQPASVSGSPGQSITISCTGTSSDVGGYNYVSWYQQHPGKAPKLMIYDVSNRPSGVSNRFSGSKSGNTASLTISGLQAEDEADYYCSSYTSSSARVFGTGTKVTVL
B16 gave an EC50 of 1.58 ng/mL.

B17: C051 (antibody, V domains shown)
VH: EVQLVESGGGLIQAGGSLRLSCAASGFGVRNNYMSWVRQAPGKGLEWVSVIYSGGTTYYADSVKGRFTISRDNSKNTVFLQMNSLRAEDTAVYYCAREGDVEGFSDLWSGYSRDRYYFDYWGQGTLVTVSS
VL: B16 VL with I20F, H41Y, M49L, S54T, N62D, Y93F, S97N, A98T
Binder B17 has an EC50 of 1.65 ng/mL.

B18: C053 (antibody, V domains shown)
VH: B16 VH with T28I, E46D, S56T, D59Y, S86R, Y105H, F107S
VL: B16 VL with T25S, Y34F, K44R, A82V, S95N, S96N, S97N, A98T
For B18, the EC50 was 1.53 ng/mL.

B19: C050 (antibody, V domains shown)
VH: EVQLVESGGGLFQPGGSLRLSCAASGFSVRNNYVSWVRQAPGKGLEWVSVIYSGGTTYYADSVKGRFTISRDISENTLYLQMNSLRAEDTAVYYCAREGDVEGLHDFWSGYSRDRYYFDYWGQGTLVTVSS
VL: B16 VL with T19I, S27G, V29I, N55F, G70D, Y93F, S95G, S96N, S97N, A98T
Binder B19 has an EC50 of 1.93 ng/mL.

B20: C052 (antibody, V domains shown)
VH: B16 VH with Q13R, T28S, S56T, D59Y, T68N, L78V, S86R, T125A
VL: B16 VL with S91N, S96N, S97N, A98T
In the case of B20, the EC50 is reported as 1.23 ng/mL.

B21: C144 (antibody, V domains shown)
VH: B16 VH with D59Y, N73K, S84R, S86R, D100E, Y105N
VL: B16 VL with A98T
In the case of B21, the EC50 is reported as 1.83 ng/mL.

B22: C098 (antibody, V domains shown)
VH: EVQLVESGGGLIQPGGSLRLSCAASGFTVSSNYMSWVRQAPGKGLEWVSVIYSGGSTYYADSVKGRFTISRDNSKNTLYLQMNSLRAEDTAVYYCARDLYSSGGTDIWGQGTMVTVSS
VL: not shown
For B22, the EC50 was 7.7 ng/mL.

B23: C099 (antibody, V domains shown)
VH: B22 VH with F27I, I51M, S53A, Y58F, N73D, Y79F, V92I
VL: EIVLTQSPGTLSLSPGERATLSCRASQSIGSSYLAWYQQKPGLAPRLLIYGASRRATGIPDKFSGSGSGADFTLTISRLEPEDFAVYYCQQYGSSPGTFGQGTKVEIK
Binder B23 has an EC50 of 2.45 ng/mL.

B24: C708 (antibody, V domains shown)
VH: EVQLVESGGGLVQPGGSLRLSCAASGFSFSTYWMSWVRQAPGKGLEWVADIKQDGSEKYFVDSVKGRFTISRDNAKNSLYLHLNSLRAEDTAVYYCAREMAGSGNYYWFGYGMDVWGQGTTVTVSS
VL: IRMTQSPSSVSASVGDRVTITCRASQGISSWLAWYQQKPGKAPKLLIYAASSLQSGVPSRFSGSESGTDFTLTISSLQPEDFATYYCQQANSFPLTFGGGTKVEIK
Binder B24 has an EC50 of 130 ng/mL.

B25: C097 (antibody, V domains shown)
VH: QVQLQESGPGLVKPSQTLSLTCTVSGGSISSGPYYWSWIRQHPGKGLEWIGYIYYSGSTYYNPSLKSRVTISVDTSKKQFSLNLNSVTAADTAVYYCARVWQYYDSTGSFDYWGQGTLVTVSS
VL: DIVMTQSPLSLPVTPGEPASISCRSSRGLLHSNGYNYLDWYLQKPGQSPQLLIYLGSNRASGVPDRFSGSGSVTDFTLNISRVEAEDVGVYYCMQALQTPFTFGPGTKVDIK
For B25, the EC50 was 3.45 ng/mL.
